Results from US10227575B2, “Multi-domain enzymes having cutinase activity, compositions comprising same and uses thereof” (OZYMES, priority 2015, dated 2019).
Where two headings read alike, the source gives them in different places.

Columns and labels:
[1] = type: biochemical, Petromyces albertensis; details: for Residual ochratoxin A (%): 5 ppm Ochratoxin A, 37° C., relative to incubation without enzyme; for Ochratoxin A Degradation per U and h: per 1 U of enzyme (pNP standard test) and hour at 37° C.; for Ochratoxin A degraded: after 4 hours
Experimental: The enzymes purified in Example 18 were tested for their ability to degrade the mycotoxin Ochratoxin A. In general, the mycotoxin was incubated with different concentrations of the enzyme, and the remaining mycotoxin concentration, as well the respective degradation products, were monitored by LC-MS over time (where possible/applicable).
Reactions were performed in 1 mL volumes in glass HPLC vials comprising the mycotoxin to be analyzed and the enzyme to be tested. For Ochratoxin A (Petromyces albertensis, 01877 Sigma), 50 μL of a 100 ppm stock solution in methanol (final concentration of 5 ppm) was added to 910 μL of distilled water and 40 μL of the enzyme to be tested. In control reactions, the volume of enzyme was substituted with distilled water. The reactions were incubated in an Eppendorf thermomixer at 37° C. with shaking at 750 rpm. 100 μL samples were withdrawn at 1, 4 and 24 h for chromatographic analysis.
Mycotoxin analysis was carried out using a Shimadzu LCMS-2020 equipped with a UV/vis detector. Chromatographic separation of 10 μL injected sample was carried out at 30° C. on a Kinetex 2.6 μm XB-C18 column 100 Å (50×2.1 mm) using a binary gradient. For Ochratoxin A, eluent A consisted of water and eluent B consisted of acetonitrile and the UV detection wavelength was 360 nm.
The five enzymes tested were screened for their ability to degrade 5 ppm (5,000 ppb) Ochratoxin A at 37° C.

[2] = Substrate range on p-NP esters, KrCUT versus KrCUT189; type: biochemical
Experimental: (§1) Esterase activity was determined by monitoring the formation of pNP at 410 nm from various pNP-esters using a Beckman UV spectrophotometer (model DU 640) (21). Substrates were dissolved in isopropanol and were added to 50 mM sodium phosphate buffer pH 8.0 to give 10% (v/v) total isopropanol concentration in a 1 mL reaction volume. pNP-butyrate was used at a final concentration of 1.2 mM. For pNP-caprylate, myristate and palmitate, the final concentration ranged from 0.1 to 0.5 mM. The reaction (1 mL) was started by adding an appropriate amount of enzyme. One enzyme unit (U) is defined as the amount of enzyme that produced 1 μmol of product (pNP) per min; specific activity is expressed as U/mg protein. A molar extinction coefficient of 15 mM^−1 cm^−1 for pNP is used for calculating enzyme activity.

[3] = Degradation of poly(1,3-propylene adipate); details: 2.5 μM, after 24 hours
[4] = Thermostability of purified enzymes; type: physicochemical
Experimental: Enzyme thermostability was studied over a temperature range of 50-95° C. using the purified enzyme preparations. Aliquots were incubated at the desired temperature for 5, 10, 30, 60, and 120 minutes, chilled on ice, and assayed for remaining activity towards p-NP-palmitate (pNPP) at room temperature.

[5] = Polymer binding test, cellulose
Experimental: Different polymers (cellulose, PLA, PCL, and PHB) were tested to evaluate the ability of KrCUT and KrCUT189 to bind these materials. Binding assays for PCL and PLA could not be performed since both polymers were degraded by the enzymes.

[6] = pH optimum in Universal Buffer; type: biochemical; details: pH 5-11, p-nitrophenyl butyrate
Experimental: as §1
Universal Buffer solutions were prepared according to Britton and Robinson (Surinenaite et al., 2002), having the selected pH value from 5-11. Activity of KrCUT and KrCUT189 were measured at the indicated pH, using p-nitrophenyl butyrate as substrate as described in Example 1, section 1.6). Curves were obtained by plotting values of activity against pH.

[7] = Experimental: Molar masses of the samples were determined with universal calibration with the refractive index detector and the viscosity detector. The universal calibration curve was based on polystyrene standards [Polymer Laboratories (Amherst, Mass.) and Aldrich (Oakville, ON)] using the molar masses determined by the manufacturer and the intrinsic viscosities measured by the apparatus. The software OmniSEC™ software from Viscotek was used for data collection and calibration. Separation in THF was performed by injecting 100 μL of 1.5-2 mg/mL solutions of standards or samples into thermostatically controlled SuperRes™ columns [35° C.; PAS-102, PAS102.5, PAS-103L, each 300 mm×8 mm; PolyAnalytik (London, ON)]. The flow rate was 1 mL/min.
Alternatively, a thin film was prepared from 1 g of commercial available PCL pellets and used for degradation. The polymer was dissolved in dichloromethane in a 1 L beaker. The solvent was allowed to evaporate overnight and the resulting film dried to constant weight under reduced pressure. Prior to enzymatic treatment the film was cut into pieces (20 mg) of approximately 1.5 cm×1.5 cm and thickness of approximately 0.1 mm. The reaction mixture was monitored by HPLC and SEC as described above.
To quantify this further, pellets of polycaprolactone (PCL) as well as films of PCL were incubated with KrCUT at various enzyme concentrations (1.25 μM, 2.5 μM, and 5 μM representing 4.7, 9.5 and 19 enzyme Units) at 37° C. The degradation of the polymer was followed over time by analyzing aliquots of the reaction mixture by HPLC for the detection of the released monomer (6-hydroxyhexanoic acid) and characterization of the remaining polymer by SEC after lypholization of the sample.

[8] = Long term stability of KrCUT in culture medium; type: physicochemical; details: for Activity (U/mL): culture medium at 4° C.

B1: CfCUT: mature wild-type cutinase from Cellulomonas flavigena, SEQ ID NO: 28 (protein, listed as Cellulomonas flavigena)
chain: APACPDVELVFARGTGEAAGLGIVGRPLERALAAELPGRTVVATAVDYAASSSQASAGPGSGDMVAKVRSRAAACPGTQFVLGGYSQGATVTDLALGIRTGVTAGTALPEDLAARVAAVVVYGNPLGLTRRTIAQAAPAFATRTVEYCNAGDPVCEPGGGRFTAHITYATNGTVLEGARFAAARVTAPAPTPTPGPTGTPAPVPSAEPTPAPGDTCVTASSLQHVRDGRAYPLWMRTYARGSGDPLGVLSSRTVVSLQADGTDTWRKVAAC
- Residual ochratoxin A (%) ([1]; 1 h): 11%
- Residual ochratoxin A (%) ([1]; 4 h): 2%
- Residual ochratoxin A (%) ([1]; 24 h): 0%
- Ochratoxin A Degradation per U and h [1]: 3 µmol

B2: Am-Kr: chimeric variant: AmCUT fused to the T/P-rich linker domain and polymer binding domain of KrCUT, SEQ ID NO: 27 (protein)
chain: ACSDLEIVFARGSGEAPGLGITGTPLVSDVKSALSSASVSSYAVDYAASYDQTSAGPGATDMSNHIKSTAAACPDTKFAIGGYSQGASVTDIAIGIRTYLGTGQTIPTELAPRVVAVIAFGNPLGLYGQTIKTASPTYGPKSLEFCNRGDNVCGGTGTGPGYGHLSYARDGSVDQAAAFIAKQYNASAGTPTTPTPTPTPTPVPTTCVRDSTRDHVAADRAVSLYGRAYARGSRDSLGATSSYNVVSLQQVEGGWRLVTAC
modifications: YebF carrier; Am-Kr variant
- Residual ochratoxin A (%) ([1]; 1 h): 6%
- Residual ochratoxin A (%) ([1]; 4 h): 0%
- Residual ochratoxin A (%) ([1]; 24 h): 0%
- Ochratoxin A degraded [1]: 100%
- Ochratoxin A Degradation per U and h [1]: 3 µmol

B3: KrCUT: mature Kineococcus radiotolerans cutinase, amino acids 34-294 of SEQ ID NO: 1; SEQ ID NO: 6 (protein)
chain: ATCSDVDVVFARGTGETPGLGVVGGPFVRSLTGELSDRTVTSHAVDYAASSSQASAGPGATAMSAHVREVAAACPSTRFVLGGYSQGATVTDIALGIRTGTTTGTPVPAELAGRVAAVVVFGNPLGLSGRTIATASSTYGPKSKDYCNSSDSVCGSAPKTGTGGHLSYASNGSTTDGARFAAGLVRAAGTPTTPTPTPTPTPVPTTCVRDSTRDHVAADRAVSLYGRAYARGSRDSLGATSSYNVVSLQQVEGGWRLVTAC
modifications: Kineococcus radiotolerans; (1)..(261) KrCUT (lacking residues 1-33 of ssKrCUT)
- activity towards pNB-acetate [2]: little activity
- fold higher activity with pNP butyrate over pNP-palmitate [2]: 8 fold
- substrate giving the highest activity ([2]; p-NP esters): pNP butyrate
- adipic acid found in the reaction mixture [3]: 12%
- Relative activity remaining (thermostability) ([4]; 50° C., 5 min, time 0 = 100%): 61 ± 5%
- Relative activity remaining (thermostability) ([4]; 50° C., 10 min, time 0 = 100%): 31 ± 4%
- Relative activity remaining (thermostability) ([4]; 50° C., 30 min, time 0 = 100%): 12 ± 2%
- Relative activity remaining (thermostability) ([4]; 50° C., 60 min, time 0 = 100%): 6%
- Relative activity remaining (thermostability) ([4]; 55° C., 5 min, time 0 = 100%): 45 ± 4%
- Relative activity remaining (thermostability) ([4]; 55° C., 10 min, time 0 = 100%): 26 ± 4%
- Relative activity remaining (thermostability) ([4]; 55° C., 30 min, time 0 = 100%): 4%
- Relative activity remaining (thermostability) ([4]; 60° C., 5 min, time 0 = 100%): 34 ± 4%
- Relative activity remaining (thermostability) ([4]; 60° C., 10 min, time 0 = 100%): 12 ± 2%
- Relative activity remaining (thermostability) ([4]; 65° C., 5 min, time 0 = 100%): 19 ± 2%
- binding to cellulose [5]: did not bind
- pH optimum [6]: 8
- polymer peak in SEC ([7]; 2.5-5 μM, 24 hours): complete disappearance of the polymer
- 6-hydroxy hexanoic acid from PCL pellets, % of the maximum yield ([7]; PCL pellets, 2.5 μM protein, 24 hours): 18%
- degradation of thin films of PCL ([7]; enzyme 1.25 μM, 24 hours): nearly completely degraded
- acidic monomers released from PCL ([7]; enzyme 2.5 or 5 μM, 6 hours, 37° C.): ~90%
- Mn of remaining PCL ([7]; time 0 h): 44000 Daltons
- Mw of remaining PCL ([7]; time 0 h): 63300 Daltons
- PCL (SEC) ([7]; time 0 h): 100%
- acid (HPLC) ([7]; time 0 h): 0%
- Mn of remaining PCL ([7]; time 1 h): 53800 Daltons
- Mw of remaining PCL ([7]; time 1 h): 64400 Daltons
- PCL (SEC) ([7]; time 1 h): 61%
- acid (HPLC) ([7]; time 1 h): 28%
- Mn of remaining PCL ([7]; time 3 h): 55000 Daltons
- Mw of remaining PCL ([7]; time 3 h): 66600 Daltons
- PCL (SEC) ([7]; time 3 h): 27%
- acid (HPLC) ([7]; time 3 h): 60%
- Mn of remaining PCL ([7]; time 6 h): 58200 Daltons
- Mw of remaining PCL ([7]; time 6 h): 68100 Daltons
- PCL (SEC) ([7]; time 6 h): 12%
- acid (HPLC) ([7]; time 6 h): 85%
- Mn of remaining PCL ([7]; time 24 h): 69500 Daltons
- Mw of remaining PCL ([7]; time 24 h): 74000 Daltons
- PCL (SEC) ([7]; time 24 h): 0.3%
- acid (HPLC) ([7]; time 24 h): 100%
- Activity (U/mL) ([8]; 0 months): 3.0 ± 0.94 U/mL
- Activity (U/mL) ([8]; 3 months): 25.67 ± 0.94 U/mL
- Activity (U/mL) ([8]; 4 months): 17.13 ± 0.70 U/mL
- Activity (U/mL) ([8]; 17 months): 16.66 ± 2.47 U/mL
- Activity (U/mL) ([8]; 19 months): 21.94 U/mL
- activity retained ([8]; room temperature, culture medium without additives, 4 months): full activity
- Residual ochratoxin A (%) ([1]; 1 h): 63%
- Residual ochratoxin A (%) ([1]; 4 h): 17%
- Residual ochratoxin A (%) ([1]; 24 h): 7%
- Ochratoxin A Degradation per U and h [1]: 0.02 µmol

B4: Cf-TP: chimeric variant: catalytic and polymer binding domains of CfCUT with T/P-rich linker domain of KrCUT, SEQ ID NO: 29 (protein)
chain: APACPDVELVFARGTGEAAGLGIVGRPLERALAAELPGRTVVATAVDYAASSSQASAGPGSGDMVAKVRSRAAACPGTQFVLGGYSQGATVTDLALGIRTGVTAGTALPEDLAARVAAVVVYGNPLGLTRRTIAQAAPAFATRTVEYCNAGDPVCEPGGGRFTAHITYATNGTVLEGARFAAARVTAAGTPTTPTPTPTPTPVPTTCVTASSLQHVRDGRAYPLWMRTYARGSGDPLGVLSSRTVVSLQADGTDTWRKVAAC
modifications: YebF carrier; Cf-TP variant
- Relative activity remaining (thermostability) ([4]; 10 min): 43 ± 3%
- Residual ochratoxin A (%) ([1]; 1 h): 5%
- Residual ochratoxin A (%) ([1]; 4 h): 0%
- Residual ochratoxin A (%) ([1]; 24 h): 0%
- Ochratoxin A degraded [1]: 100%
- Ochratoxin A Degradation per U and h [1]: 98 µmol
